Assay: Cell lysate reaction of pMT enzymes with psi-ionone, irones quantified by HS-SPME-GCMS
Format: biochemical
Conditions: for cis-α-irone content (percentage of cis-α-irone in the irone mixture): cell extracts with psi-ionone; for fold change in cis-α-irone produced: AUC vs non-mutated (=1); for irone production / methyltransferase activity towards psi-ionone (in words): cell lysate reaction, vs parent or control
Method: Using the structure of pMT1 in complex with the cofactor S-adenosyl-L-homocysteine (SAH) and the substrate teleocidin A1 (PDB id: 5GM2) as a template, pMT1 bound to each of the four isomers of α-irone was modelled with the aim of identifying amino acid residues that could be critical to increase cis-α-irone or decrease trans-α-irone production (FIGS. 2d and 2e). […] Site-directed mutagenesis of the 24 residues was carried out with degenerative primers. Subsequently, the mutants of each site were pooled together, and examined if the activity or product-selectivity of the pooled mutants were increased (FIG. 8). This reduced the number of screening reactions to 24, which is manageable when a high-throughput enzymatic assay is not available. […] One residue was chosen and subjected to site-saturation mutagenesis by using degenerative primers containing NNN or NNK. The plasmid library was then transformed into E. coli BL21 (DE3) cells and plated on agar plate containing autoinduction media^19. […] Subsequently, the colonies were collected and resuspended in phosphate saline buffer. Equal number of cells was taken for lysis and cell lysate reactions were carried out in capped SPME-GC vials at 28° C. for 2 days. HS-SPME-GCMS analysis was used to quantify the amount of irones produced by each pooled-colony reaction. […] 24 residues including the control Gly85 (G85m) were subjected to site-saturation mutagenesis, using pMT1 as the template. […] The amount of cis-α-irone produced was estimated based on the area under the gas chromatogram curve (AUC). The fold change is calculated by comparing the AUC of cis-α-irone produced by the mutant enzyme to that of non-mutated.
For each pMT mutant, it was transformed into BL21 and grown in autoinduction media with 5 mM lactose at 20° C. for 36 hrs. Then, cells were pelleted and concentrated 10 times by adding 1 ml of PBS. The OD600 was measured and 40*600 OD*ul cells were transferred into a new 1.5 ml tube. The cells were spun down and resuspended in 600 μl of lysis buffer (1×DNase buffer, 150 mM NaCl, 0.5% glycerol, 1 mg/ml lysozyme and 20U of DNasel). The cells were incubated for 2 hrs at 20° C. with shaking at 300 rpm. Following that, 2 cycles of freeze-thaw was done to completely lyse the cells. At the end of the 2nd thawing, the cell lysate was used to setup a 1 ml reaction in 2 ml GC vials. The reaction consisted of 50 mM Tris (pH7), 10 mM MgCl2, 60 mM NaCl, 0.2 mM SAM and 10 mg/L of psi-ionone and caryophyllene each. To this, 500 μl of cell lysate was added while the remaining 100 μl was used for SDS-PAGE to analyze the total and soluble protein expression. The reaction was incubated for 2 days at 28° C., 300 rpm prior to extraction of cis-α-irone with 500 μl hexane. From this, 20 μl of organic layer was taken into 180 μl hexane for GCMS analysis.
For the mutant pMT activity screening, the reactants and products were analyzed by head space solid phase microextraction (HS-SPME) coupled with an Agilent 5977B gas chromatography (GC) system equipped with Agilent DB-5 ms column (30 m×250 μm×0.25 μm) and mass spectrometry (MS) with high efficiency source. The reaction mixtures were carried out in SPME vials which were incubated at 60° C. for 20 mins to allow the release of volatile compounds. The absorbent fiber (50/30 μm divinylbenzol/carboxen/polydimethyl-SPME fiber, SUPELCO) was then exposed to the headspace of the vial for 20 mins. The extracted analytes were desorbed at the GC inlet at 250° C. for 1 min and injected into GC with a split ratio of 200:1. The GC oven temperature increased from 50° C. to 140° C. at a rate of 10° C./min and held at 140° C. for 10 min. Subsequently, the temperature was increased to 320° C. at a rate of 60° C./min and held at 320° C. for 2 mins.

B1: pMT2: pMT1 with Y200F (protein)
chain: MPQEARTPQQQVTADEVGDWYDKFGEVYHLTLGESVHCGLWFPPDAPVPQDMELVTMSSQAQDRYTDYLIETLDPKAGQHLLDIGCGTGRTALKAARQRGIAVTGVAVSKEQIAAANRLAAGHGLTERLTFEVADAMRLPYEDESFDCAWAIESLCHMDRAKALGEAWRVLKPGGDLLVLESVVTEELTEPETALFETLFAANVPPRLGEFFDIVSGAGFHTLSLKDLSANLAMTMNVFALGVYSRRAEFTERFGAEFVDGLLAGLGSAQETLIRKTRFFMATLRKPAV
modifications: Modified from pMT1
notes: pMT1 with Y200F
With B1 the “cis-α-irone content (percentage of cis-α-irone in the irone mixture)” value was ~68%, the “fold change in cis-α-irone produced” value (pMT1_Y200 mutants) was 12.2 and the “fold change in cis-α-irone produced” value (pMT2_C156 mutants) was 1.0. The “fold change in cis-α-irone produced” value (pMT2_F196 mutants) was 1.0, the “fold change in cis-α-irone produced” value (pMT2_L180 mutants) was 1.0 and the “fold change in cis-α-irone produced” value (pMT2_L232 mutants) was 1.0. For the same molecule, the “fold change in cis-α-irone produced” value (pMT2_M236 mutants) was 1.0, the “fold change in cis-α-irone produced” value (pMT2_S182 mutants) was 1.0 and the “fold change in cis-α-irone produced” value (pMT2_T277 mutants) was 1.0. For the same molecule, the “fold change in cis-α-irone produced” value (pMT2_V36 mutants) was 1.0 and the “improvement of total turnover number (TTN)” value (vs pMT1, TTN = cis-α-irone produced / soluble pMT enzyme) was > 12 fold.

B2: pMT1_Y200L: pMT1 with Y200L (protein)
chain: MPQEARTPQQQVTADEVGDWYDKFGEVYHLTLGESVHCGLWFPPDAPVPQDMELVTMSSQAQDRYTDYLIETLDPKAGQHLLDIGCGTGRTALKAARQRGIAVTGVAVSKEQIAAANRLAAGHGLTERLTFEVADAMRLPYEDESFDCAWAIESLCHMDRAKALGEAWRVLKPGGDLLVLESVVTEELTEPETALFETLLAANVPPRLGEFFDIVSGAGFHTLSLKDLSANLAMTMNVFALGVYSRRAEFTERFGAEFVDGLLAGLGSAQETLIRKTRFFMATLRKPAV
For B2, the “irone production / methyltransferase activity towards psi-ionone (in words)” value was “improved trans-α-irone production” and the “fold change in cis-α-irone produced” value (pMT1_Y200 mutants) was 0.4.

B3: pMT5: pMT1 with Y200F S182E L273V L180A (protein)
chain: MPQEARTPQQQVTADEVGDWYDKFGEVYHLTLGESVHCGLWFPPDAPVPQDMELVTMSSQAQDRYTDYLIETLDPKAGQHLLDIGCGTGRTALKAARQRGIAVTGVAVSKEQIAAANRLAAGHGLTERLTFEVADAMRLPYEDESFDCAWAIESLCHMDRAKALGEAWRVLKPGGDLLVAEEVVTEELTEPETALFETLFAANVPPRLGEFFDIVSGAGFHTLSLKDLSANLAMTMNVFALGVYSRRAEFTERFGAEFVDGLLAGLGSAQETVIRKTRFFMATLRKPAV
modifications: Modified from pMT1
notes: pMT1 with Y200F S182E L273V L180A
For B3, the “cis-α-irone content (percentage of cis-α-irone in the irone mixture)” value was ~90%, the “fold change in cis-α-irone produced” value (pMT4_L180 mutants) was 1.8 and the “fold change in cis-α-irone produced” value (pMT5_A102 mutants) was 1.0. The “fold change in cis-α-irone produced” value (pMT5_A202 mutants) was 1.0 and the “fold change in cis-α-irone produced” value (pMT5_T104 mutants) was 1.

B4: pMT6: pMT1 with Y200F S182E L273V L180A A202L (protein)
chain: MPQEARTPQQQVTADEVGDWYDKFGEVYHLTLGESVHCGLWFPPDAPVPQDMELVTMSSQAQDRYTDYLIETLDPKAGQHLLDIGCGTGRTALKAARQRGIAVTGVAVSKEQIAAANRLAAGHGLTERLTFEVADAMRLPYEDESFDCAWAIESLCHMDRAKALGEAWRVLKPGGDLLVAEEVVTEELTEPETALFETLFALNVPPRLGEFFDIVSGAGFHTLSLKDLSANLAMTMNVFALGVYSRRAEFTERFGAEFVDGLLAGLGSAQETVIRKTRFFMATLRKPAV
modifications: Modified from pMT1
notes: pMT1 with Y200F S182E L273V L180A A202L
With B4 the “irone production / methyltransferase activity towards psi-ionone (in words)” value was “significantly increased the cis-α-irone concentration”, the “β-irone share of the irone mixture” value (cell lysate with psi-ionone) was ~30% and the “fold change in cis-α-irone produced” value (pMT5_A202 mutants) was 4.3. The “fold change in cis-α-irone produced” value (pMT6_C156 mutants) was 1.0 and the “fold change in cis-α-irone produced” value (pMT6_Y65 mutants) was 1.0.

B5: pMT8: pMT1 with Y200F S182E L273V L180A A202L C156P (protein)
chain: MPQEARTPQQQVTADEVGDWYDKFGEVYHLTLGESVHCGLWFPPDAPVPQDMELVTMSSQAQDRYTDYLIETLDPKAGQHLLDIGCGTGRTALKAARQRGIAVTGVAVSKEQIAAANRLAAGHGLTERLTFEVADAMRLPYEDESFDCAWAIESLPHMDRAKALGEAWRVLKPGGDLLVAEEVVTEELTEPETALFETLFALNVPPRLGEFFDIVSGAGFHTLSLKDLSANLAMTMNVFALGVYSRRAEFTERFGAEFVDGLLAGLGSAQETVIRKTRFFMATLRKPAV
modifications: Modified from pMT1
notes: pMT1 with Y200F S182E L273V L180A A202L C156P
With B5 the “irone production / methyltransferase activity towards psi-ionone (in words)” value was “further improved the TTN of the enzyme” and the “fold change in cis-α-irone produced” value (pMT6_C156 mutants) was 1.1.

B6: pMT9: pMT1 with Y200F S182E L273V L180A A202L Y65F C156A (protein)
chain: MPQEARTPQQQVTADEVGDWYDKFGEVYHLTLGESVHCGLWFPPDAPVPQDMELVTMSSQAQDRYTDYLIETLDPKAGQHLLDIGCGTGRTALKAARQRGIAVTGVAVSKEQIAAANRLAAGHGLTERLTFEVADAMRLPYEDESFDCAWAIESLAHMDRAKALGEAWRVLKPGGDLLVAEEVVTEELTEPETALFETLFALNVPPRLGEFFDIVSGAGFHTLSLKDLSANLAMTMNVFALGVYSRRAEFTERFGAEFVDGLLAGLGSAQETVIRKTRFFMATLRKPAV
modifications: Modified from pMT1
notes: pMT1 with Y200F S182E L273V L180A A202L Y65F C156A
With B6 the “irone production / methyltransferase activity towards psi-ionone (in words)” value was “increased both α- and β-irone production”.

B7: pMT1_R160F: pMT1 with R160F (protein)
chain: MPQEARTPQQQVTADEVGDWYDKFGEVYHLTLGESVHCGLWFPPDAPVPQDMELVTMSSQAQDRYTDYLIETLDPKAGQHLLDIGCGTGRTALKAARQRGIAVTGVAVSKEQIAAANRLAAGHGLTERLTFEVADAMRLPYEDESFDCAWAIESLCHMDFAKALGEAWRVLKPGGDLLVLESVVTEELTEPETALFETLYAANVPPRLGEFFDIVSGAGFHTLSLKDLSANLAMTMNVFALGVYSRRAEFTERFGAEFVDGLLAGLGSAQETLIRKTRFFMATLRKPAV
With B7 the “fold change in cis-α-irone produced” value (pMT1_R160 mutants) was 0.0.

B8: pMT1_M236F: pMT1 with M236F (protein)
chain: MPQEARTPQQQVTADEVGDWYDKFGEVYHLTLGESVHCGLWFPPDAPVPQDMELVTMSSQAQDRYTDYLIETLDPKAGQHLLDIGCGTGRTALKAARQRGIAVTGVAVSKEQIAAANRLAAGHGLTERLTFEVADAMRLPYEDESFDCAWAIESLCHMDRAKALGEAWRVLKPGGDLLVLESVVTEELTEPETALFETLYAANVPPRLGEFFDIVSGAGFHTLSLKDLSANLAMTFNVFALGVYSRRAEFTERFGAEFVDGLLAGLGSAQETLIRKTRFFMATLRKPAV
With B8 the “fold change in cis-α-irone produced” value (pMT1_M236 mutants) was 0.0.

B9: pMT1_E153F: pMT1 with E153F (protein)
chain: MPQEARTPQQQVTADEVGDWYDKFGEVYHLTLGESVHCGLWFPPDAPVPQDMELVTMSSQAQDRYTDYLIETLDPKAGQHLLDIGCGTGRTALKAARQRGIAVTGVAVSKEQIAAANRLAAGHGLTERLTFEVADAMRLPYEDESFDCAWAIFSLCHMDRAKALGEAWRVLKPGGDLLVLESVVTEELTEPETALFETLYAANVPPRLGEFFDIVSGAGFHTLSLKDLSANLAMTMNVFALGVYSRRAEFTERFGAEFVDGLLAGLGSAQETLIRKTRFFMATLRKPAV
With B9 the “fold change in cis-α-irone produced” value (pMT1_E153 mutants) was 0.0.

Reference: patent US20240240209A1, “SYNTHESIS OF ENANTIOPURE CIS-A-IRONE FROM A RENEWABLE CARBON SOURCE” (Agency for Science, Technology and Research, priority 2021, published 2024)
